Assay results reported in US20040265961A1 (published 2004).
Each block holds one molecule with its values, some of them ahead of it.

Experiments:
[1] = system: T1, hKSR-2-FLAG (full-length human KSR-2 with the FLAG epitope at its carboxyl terminus)
T1 sequence: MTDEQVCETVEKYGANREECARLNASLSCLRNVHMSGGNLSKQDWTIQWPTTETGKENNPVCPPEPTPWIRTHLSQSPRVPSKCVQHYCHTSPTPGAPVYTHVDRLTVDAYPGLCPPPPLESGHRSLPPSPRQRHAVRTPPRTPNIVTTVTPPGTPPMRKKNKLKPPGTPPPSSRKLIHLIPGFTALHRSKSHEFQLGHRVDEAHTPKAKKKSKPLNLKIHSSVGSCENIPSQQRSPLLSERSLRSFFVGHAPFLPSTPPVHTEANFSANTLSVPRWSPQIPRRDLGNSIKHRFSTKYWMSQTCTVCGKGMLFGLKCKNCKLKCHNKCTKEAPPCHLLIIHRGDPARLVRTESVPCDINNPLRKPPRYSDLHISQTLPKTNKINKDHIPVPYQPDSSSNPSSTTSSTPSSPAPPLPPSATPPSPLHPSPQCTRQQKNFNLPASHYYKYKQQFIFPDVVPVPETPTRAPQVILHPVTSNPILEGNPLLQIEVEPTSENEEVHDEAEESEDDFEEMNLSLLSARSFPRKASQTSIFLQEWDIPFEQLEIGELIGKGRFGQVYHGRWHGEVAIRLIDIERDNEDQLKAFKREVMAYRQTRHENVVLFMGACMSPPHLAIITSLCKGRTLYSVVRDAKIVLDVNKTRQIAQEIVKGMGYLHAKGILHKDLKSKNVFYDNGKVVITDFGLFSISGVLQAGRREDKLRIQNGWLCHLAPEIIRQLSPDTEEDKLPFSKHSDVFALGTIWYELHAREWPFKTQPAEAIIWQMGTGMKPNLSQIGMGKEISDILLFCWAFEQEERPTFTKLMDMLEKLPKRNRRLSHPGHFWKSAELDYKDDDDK

[2] = molecular target: T2, hKSR-2-FLAG (full-length human KSR-2 with the FLAG epitope at its carboxyl terminus)
T2 chain: T1 sequence

[3] = molecular target: T3, hKSR-2-FLAG (full-length human KSR-2 with the FLAG epitope at its carboxyl terminus) (human, UniProt Q6VAB6 122-950, limits assumed); experiment: anti-FLAG immunoprecipitation from KSR-2-FLAG-transfected 293T lysate (about 1 mg protein), Western blot with commercial antibodies
T3 construct: Expressed in 293T cells from pcDNA-DEST-40; Tested in cell lysates, or eluted from anti-FLAG beads with FLAG peptide for the kinase assay
T3 sequence: T1 sequence
Description: To identify proteins that interact with human KSR-2, 293T cells were transfected with KSR-2-FLAG as described above. Cells transfected with FLAG vector alone served as a control. Cells were lysed as described above 48 h posttransfection. Protein concentrations were determined using the BCA protein assay. Cell lysates containing approximately 1 mg protein were subjected to anti-FLAG antibody immunoprecipitation followed by electrophoresis on a 2D gel resolved in only one dimension. The proteins were then transferred to nitrocellulose membranes and probed with various commercially available antibodies (Cell Signaling Technology, Beverly, Mass.) using the MN20SL Miniblotter (Immunetics, Cambridge, Mass.).

Molecule: Raf enzyme (Upstate Biotechnology, Inc.)
Raf kinase activity (in vitro kinase assay, 33P phosphorylation of GST-MEK1-His6) [1]: Raf kinase activity was upregulated

B1: purified recombinant Cot/Tp12 (protein)
chain: MENLYASEEPAVYEPSLMTMCQDSNQNDERSKSLLLSGQEVPWLSSVRYGTVEDLLAFANHISNTAKHFYGQRPQESGILLNMVITPQNGRYQIDSDVLLIPWKLTYRNIGSDFIPRGAFGKVYLAQDIKTKKRMACKLIPVDQFKPSDVEIQACFRHENIAELYGAVLWGETVHLFMEAGEGGSVLEKLESCGPMREFEIIWVTKHVLKGLDFLHSKKVIHHDIKPSNIVFMSTKAVLVDFGLSVQMTEDVYFPKDLRGTEIYMSPEVILCRGHSTKADIYSLGATLIHMQTGTPPWVKRYPRSAYPSYLYIIHKQAPPLEDIADDCSPGMRELIEASLERNPNHRPRAADLLKHEALNPPREDQPR
Cot/Tp12 kinase activity (in vitro kinase assay, 33P phosphorylation of GST-MEK1-His6) [2]: KSR-2 reduced Cot/Tp12 kinase activity in a dose-dependent manner

binding result [3]: no binding
B2: P.SEK1 (enzyme, UniProt P45985 2-399, looked up)
chain: AAPSPSGGGGSGGGSGSGTPGPVGSPAPGHPAVSSMQGKRKALKLNFANPPFKSTARFTLNPNPTGVQNPHIERLRTHSIESSGKLKISPEQHWDFTAEDLKDLGEIGRGAYGSVNKMVHKPSGQIMAVKRIRSTVDEKEQKQLLMDLDVVMRSSDCPYIVQFYGALFREGDCWICMELMSTSFDKFYKYVYSVLDDVIPEEILGKITLATVKALNHLKENLKIIHRDIKPSNILLDRSGNIKLCDFGISGQLVDSIAKTRDAGCRPYMAPERIDPSASRQGYDVRSDVWSLGITLYELATGRFPYPKWNSVFDQLTQVVKGDPPQLSNSEEREFSPSFINFVNLCLTKDESKRPKYKELLKHPFILMYEERAVEVACYVCKILDQMPATPSSPMYVD
modifications: phosphorylated (sites not given)
notes: Endogenous protein of 293T cells, probed with a commercial antibody; also called phosphorylated SEK1
